US12698494
Substitutions are numbered along the chain they refer to. In names and notes the source's numbering stands.

T1: FRETS-VWF73 fluorogenic substrate, P04275
T1 chain: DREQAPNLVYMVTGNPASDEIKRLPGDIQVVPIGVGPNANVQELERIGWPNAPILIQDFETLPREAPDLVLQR

B1: ADAMTS13 variant NGLY7 (664EYGNLT669 to 664ENVTLT669; glycan shift from N667 to Y665) (protein)
chain: AAGGILHLELLVAVGPDVFQAHQEDTERYVLTNLNIGAELLRDPSLGAQFRVHLVKMVILTEPEGAPNITANLTSSLLSVCGWSQTINPEDDTDPGHADLVLYITRFDLELPDGNRQVRGVTQLGGACSPTWSCLITEDTGFDLGVTIAHEIGHSFGLEHDGAPGSGCGPSGHVMASDGAAPRAGLAWSPCSRRQLLSLLSAGRARCVWDPPRPQPGSAGHPPDAQPGLYYSANEQCRVAFGPKAVACTFAREHLDMCQALSCHTDPLDQSSCSRLLVPLLDGTECGVEKWCSKGRCRSLVELTPIAAVHGRWSSWGPRSPCSRSCGGGVVTRRRQCNNPRPAFGGRACVGADLQAEMCNTQACEKTQLEFMSQQCARTDGQPLRSSPGGASFYHWGAAVPHSQGDALCRHMCRAIGESFIMKRGDSFLDGTRCMPSGPREDGTLSLCVSGSCRTFGCDGRMDSQQVWDRCQVCGGDNSTCSPRKGSFTAGRAREYVTFLTVTPNLTSVYIANHRPLFTHLAVRIGGRYVVAGKMSISPNTTYPSLLEDGRVEYRVALTEDRLPRLEEIRIWGPLQEDADIQVYRRYGEENVTLTRPDITFTYFQPKPRQAWVWAAVRGPCSVSCGAGLRWVNYSCLDQARKELVETVQCQGSQQPPAWPEACVLEPCPPYWAVGDFGPCSASCGGGLRERPVRCVEAQGSLLKTLPPARCRAGAQQPAVALETCNPQPCPARWEVSEPSSCTSAGGAGLALENETCVPGADGLEAPVTEGPGSVDEKLPAPEPCVGMSCPPGWGHLDATSAGEKAPSPWGSIRTGAQAAHVWTPAAGSCSVSCGRGLMELRFLCMDSALRVPVQEELCGLASKPGSRREVCQAVPCPARWQYKLAACSVSCGRGVVRRILYCARAHGEDDGEEILLDTQCQGLPRPEPQEACSLEPCPPRWKVMSLGPCSASCGLGTARRSVACVQLDQGQDVEVDEAACAALVRPEASVPCLIADCTYRWHVGTWMECSVSCGDGIQRRRDTCLGPQAQAPVPADFCQHLPKPVTVRGCWAGPCVGQGTPSLVPHEEAAAPGRTTATPAGASLEWSQARGLLFSPAPQPRRLLPGPQENSVQSSACGRQHLEPTGTIDMRGPGQADCAVAIGRPLGEVVTLRVLESSLNCSAGDMLLLWGRLTWRKMCRKLLDMTFSSKTNTLVVRQRCGRPGGGVLLRYGSQLAPETFYRECDMQLFGPWGEIVSPSLSPATSNAGGCRLFINVAPHARIAIHALATNMGAGTEGANASYILIRDTHSLRTTAFHGQQVLYWESESSQAEMEFSEGFLKAQASLRGQYWTLQSWVPEMQDPQSWKGKEGT
B2: ADAMTS13 variant L591A/R636A/L637A/L668A (protein)
chain: B1 chain with L517A, R562A, L563A, N591Y, V592G, T593N, L594A
B3: ADAMTS13 variant NGLY3 + R568A/Y665A (protein)
chain: B1 chain with R494A, K534N, N591A, V592G, T593N
B4: ADAMTS13 variant NGLY3 + NGLY7 (607GNMSI611/664ENVTLT669) (protein)
chain: B1 chain with K534N
B5: ADAMTS13 variant NGLY3 + NGLY8 (607GNMSI611/667LNVTA671) (protein)
chain: B1 chain with K534N, N591Y, V592G, T593L, L594N, T595V, R596T, P597A
B6: ADAMTS13 variant NGLY3 plus L591A/R636A/L637A/L668A (protein)
chain: B1 chain with L517A, K534N, R562A, L563A, N591Y, V592G, T593N, L594A
B7: ADAMTS13 variant NGLY8 (667NLTRP671 to 667LNVTA671; glycan shift from N667 to L668) (protein)
chain: B1 chain with N591Y, V592G, T593L, L594N, T595V, R596T, P597A
B8: ADAMTS13 variant R568A/Y665A (protein)
chain: B1 chain with R494A, N591A, V592G, T593N

Molecular target: T1, FRETS-VWF73 fluorogenic substrate, …

Protein	Activity level (% relative to wild type ADAMTS13) VWFFRETS73 (% relative to wild type ADAMTS13)	FRETS-VWF73 activity relative to wild-type ADAMTS13 (text value, differs from Table 4)
B1	125	
B2	90	
B3	120	
B4	135	NGLY3 plus NGLY7 was 125% active when compared to the wild type
B5	120	NGLY3 plus NGLY8 was 75% active when compared to wild type ADAMTS13
B6	95	
B7	76	NGLY8 was 75% active when compared to wild-type ADAMTS13
B8	120	

Molecular target: Von Willebrand Factor (VWF) multimers, P04275

Protein	Ability to process VWF multimers under denaturing conditions	vortex assay: processing of VWF multimers under shear stress
B1	+++++	NGLY7 was clearly capable of processing the large VWF multimers
B2	++	the proteolytic activity of R568A/Y665A and the L591A/R636A/L637A/L668A variants were reduced when compared to wild type ADAMTS13
B3	++	Combinations of NGLY3 plus L591A/R636A/L637A/L668A and NGLY3 plus R568A/Y665A efficiently processed VWF multimers
B4	+++++	combination of NGLY3/NGLY7 retained proteolytic activity towards multimeric VWF
B5	++	Combinations of NGLY3/NGLY8 also revealed a reduced ability to process VWF multimers
B6	++	Combinations of NGLY3 plus L591A/R636A/L637A/L668A and NGLY3 plus R568A/Y665A efficiently processed VWF multimers
B7	++	NGLY8 displayed a reduced ability to process VWF multimers when compared to NGLY3 and NGLY7
B8	++	the proteolytic activity of R568A/Y665A and the L591A/R636A/L637A/L668A variants were reduced when compared to wild type ADAMTS13
